Consider eleven molecules from US20190359693A1.

Some results are limits rather than exact numbers.

Experiment in all cases: cell-based or functional assay
Assay [1] has as its target hemagglutinin (HA) of influenza virus B/Florida/04/06 (Yamagata) (influenza B virus).
The target in assay [2] is hemagglutinin (HA) of influenza virus H1N1 A/New Caledonia/20/99 (influenza A virus).
The target of assay [3] is hemagglutinin (HA) of influenza virus H3N2 A/Wisconsin/67/05 (influenza A virus).
Assay [4] deals with hemagglutinin (HA) of influenza virus H5N1 A/Vietnam/1194/04 (influenza A virus).
For assay [5], the target named is hemagglutinin (HA) of influenza virus H7N3 A/NIBRG/60 (A/mallard/Netherlands/12/00) (influenza A virus).
Assay [6] has as its target hemagglutinin (HA) of influenza virus H3N2 A/Brisbane/10/07 (influenza A virus).
Assay [7] deals with hemagglutinin (HA) of influenza virus H7N7 A/PR8 H7N7-NY (influenza A virus).
Assay [8] has as its target hemagglutinin (HA) of influenza virus H1N1 A/Puerto Rico/8/34-MA (influenza A virus).
The target in assay [9] is hemagglutinin (HA) of influenza virus H1N1 A/California/07/09 (influenza A virus).
In assay [10] the target is HA of H7N3 A/NIBRG/60 (A/mallard/NL/12/00) (influenza A virus).
The target of assay [11] is HA of H1N1 A/New Caledonia/20/1999 (influenza A virus).
The target of assay [12] is HA of H1N1 A/Puerto Rico/8/34-MA (influenza A virus).
For assay [13], the target named is HA of H3N2 A/Brisbane/10/2007 (influenza A virus).
Assay [14] has as its target HA of H5N1 A/Vietnam/1194/04 (influenza A virus).

B1: MD2302 (bispecific antibody)
chain: EVQLVESGGGLVQPGGSLRLSCAVSISIFDIYAMDWYRQAPGKQRDLVATSFRDGSTNYADSVKGRFTISRDNAKNTLYLQMNSLKPEDTAVYLCHVSLYRDPLGVAGGMGVYWGKGALVTVSSGGGGSGGGGSEVQLVESGGGLVQPGGSLRLSCAATGFTLENKAIGWFRQTPGSEREGVLCISKSGSWTYYTDSMRGRFTISRDNAENTVYLQMDSLKPEDTAVYYCATTTAGGGLCWDGTTFSRLASSWGQGTQVTVSSGGGGSGGGGSEVQLVESGGGLVQAGGSLKLSCAASGRTYAMGWFRQAPGKEREFVAHINALGTRTYYSDSVKGRFTISRDNAKNTEYLEMNNLKPEDTAVYYCTAQGQWRAAPVAVAAEYEFWGQGTQVTVSS
With B1, the average neutralization titer was 412 nM in assay [1], 14.7 nM in assay [2] and 34.7 nM in assay [3].

B2: MD2306 (bispecific antibody)
chain: EVQLVESGGGLVQPGGSLRLSCAVSISIFDIYAMDWYRQAPGKQRDLVATSFRDGSTNYADSVKGRFTISRDNAKNTLYLQMNSLKPEDTAVYLCHVSLYRDPLGVAGGMGVYWGKGALVTVSSGGGGSGGGGSEVQLVESGGGLVQPGGSLRLSCAVSISIFDIYAMDWYRQAPGKQRDLVATSFRDGSTNYADSVKGRFTISRDNAKNTLYLQMNSLKPEDTAVYLCHVSLYRDPLGVAGGMGVYWGKGALVTVSSGGGGSGGGGSEVQLVESGGGLVQPGGSLRLSCAATGFTLENKAIGWFRQTPGSEREGVLCISKSGSWTYYTDSMRGRFTISRDNAENTVYLQMDSLKPEDTAVYYCATTTAGGGLCWDGTTFSRLASSWGQGTQVTVSS
On to B2, for which the average neutralization titer in assay [4] turned out to be 4.7 nM; in [2] it was 6.1 nM; in [3], 5.4 nM; in assay [5], 15.4 nM; in [6] it was 10.7 nM.

B3: MD2406 (VHH)
chain: EVQLVESGGGLVQPGGSLRLSCAVSISIFDIYAMDWYRQAPGKQRDLVATSFRDGSTNYADSVKGRFTISRDNAKNTLYLQMNSLKPEDTAVYLCHVSLYRDPLGVAGGMGVYWGKGALVTVSSGGGGSGGGGSEVQLVESGGGLVQPGGSLRLSCAVSISIFDIYAMDWYRQAPGKQRDLVATSFRDGSTNYADSVKGRFTISRDNAKNTLYLQMNSLKPEDTAVYLCHVSLYRDPLGVAGGMGVYWGKGALVTVSSGGGGSGGGGSEVQLVESGGGLVQPGGSLRLSCAVSISIFDIYAMDWYRQAPGKQRDLVATSFRDGSTNYADSVKGRFTISRDNAKNTLYLQMNSLKPEDTAVYLCHVSLYRDPLGVAGGMGVYWGKGALVTVSSGGGGSGGGGSEVQLVESGGGLVQPGGSLRLSCAVSISIFDIYAMDWYRQAPGKQRDLVATSFRDGSTNYADSVKGRFTISRDNAKNTLYLQMNSLKPEDTAVYLCHVSLYRDPLGVAGGMGVYWGKGALVTVSS
Take B3: the average neutralization titer in [3] amounted to 4.6 nM; in assay [7] it was 11 nM; in [5] it was 4.6 nM.

B4: MD2303 (bispecific antibody)
chain: EVQLVESGGGLVQPGGSLRLSCAVSISIFDIYAMDWYRQAPGKQRDLVATSFRDGSTNYADSVKGRFTISRDNAKNTLYLQMNSLKPEDTAVYLCHVSLYRDPLGVAGGMGVYWGKGALVTVSSGGGGSGGGGSEVQLVESGGGLVQAGGSLKLSCAASGRTYAMGWFRQAPGKEREFVAHINALGTRTYYSDSVKGRFTISRDNAKNTEYLEMNNLKPEDTAVYYCTAQGQWRAAPVAVAAEYEFWGQGTQVTVSSGGGGSGGGGSEVQLVESGGGLVQPGGSLRLSCAATGFTLENKAIGWFRQTPGSEREGVLCISKSGSWTYYTDSMRGRFTISRDNAENTVYLQMDSLKPEDTAVYYCATTTAGGGLCWDGTTFSRLASSWGQGTQVTVSS
Regarding B4, the average neutralization titer in assay [4] worked out at 9.1 nM; in assay [8], 9.1 nM; in assay [1], 412 nM; in [2] it was 7.2 nM; in [3], 15 nM; in [7], 18.2 nM. The average neutralization titer in assay [5] is 10.2 nM; in [6] it was 12.8 nM.

B5: MD2320 (bispecific antibody)
chain: EVQLVESGGGLVQAGDSLRISCAASGRTLSIYSMGWFRQAPGKEREFVATIGWNSGRTFYPDSLKGRFTISRDNARNTLYLQMNNLRPEDTAVYYCAAAKGPLRLSSQADYWGQGTQVTVSSGGGGSGGGGSEVQLVESGGGLVQPGGSLRLSCAVSISIFDIYAMDWYRQAPGKQRDLVATSFRDGSTNYADSVKGRFTISRDNAKNTLYLQMNSLKPEDTAVYLCHVSLYRDPLGVAGGMGVYWGKGALVTVSSGGGGSGGGGSEVQLVESGGGLVQPGGSLRLSCAATGFTLENKAIGWFRQTPGSEREGVLCISKSGSWTYYTDSMRGRFTISRDNAENTVYLQMDSLKPEDTAVYYCATTTAGGGLCWDGTTFSRLASSWGQGTQVTVSS
With B5, the average neutralization titer was above 1000 nM in assay [3], 15.3 nM in assay [7] and 15.3 nM in assay [5].

B6: MD2301 (bispecific antibody)
chain: EVQLVESGGGLVQPGGSLRLSCAATGFTLENKAIGWFRQTPGSEREGVLCISKSGSWTYYTDSMRGRFTISRDNAENTVYLQMDSLKPEDTAVYYCATTTAGGGLCWDGTTFSRLASSWGQGTQVTVSSGGGGSGGGGSEVQLVESGGGLVQPGGSLRLSCAVSISIFDIYAMDWYRQAPGKQRDLVATSFRDGSTNYADSVKGRFTISRDNAKNTLYLQMNSLKPEDTAVYLCHVSLYRDPLGVAGGMGVYWGKGALVTVSSGGGGSGGGGSEVQLVESGGGLVQAGGSLKLSCAASGRTYAMGWFRQAPGKEREFVAHINALGTRTYYSDSVKGRFTISRDNAKNTEYLEMNNLKPEDTAVYYCTAQGQWRAAPVAVAAEYEFWGQGTQVTVSS
Take B6: the average neutralization titer in assay [1] stood at 412 nM; in assay [2], 14.7 nM; in assay [3] it was 34.7 nM.

B7: MD1215 (VHH)
chain: EVQLVESGGGLVQAGGSLKLSCAASGRTYAMGWFRQAPGKEREFVAHINALGTRTYYSDSVKGRFTISRDNAKNTEYLEMNNLKPEDTAVYYCTAQGQWRAAPVAVAAEYEFWGQGTQVTVSSAAAGGGGSGGGGSGGGGSGGGGSGGGGGGSGGGGSGGGGSGGGGSGGGGSGGGGSGGGGSEVQLVESGGGLVQAGGSLKLSCAASGRTYAMGWFRQAPGKEREFVAHINALGTRTYYSDSVKGRFTISRDNAKNTEYLEMNNLKPEDTAVYYCTAQGQWRAAPVAVAAEYEFWGQGTQVTVSS
Take B7: the neutralization titer in assay [9] was found to be 4.1 nM; in [4], 918 nM; in [8], 39.6 nM; in [3] it was 34.1 nM.

B8: SD1034 (VHH)
VHH: EVQLVESGGGLVQAGGSLRLSCAASGTIFGIRVNTMGWYRQAPGEQRELVATITRSGGTNYADSVKDRFTISGDFAKDTVYLQMMHLKPEDTAVYYCNGRWALTDYWGQGTQVTVSS
As to B8, the VNA titer is above 1000 nM in assay [10]; 161 nM in assay [11]; 756 nM in [12]; above 1000 nM in assay [13]; 722 nM in assay [14].

B9: MD1213 (VHH)
chain: EVQLVESGGGLVQAGGSLKLSCAASGRTYAMGWFRQAPGKEREFVAHINALGTRTYYSDSVKGRFTISRDNAKNTEYLEMNNLKPEDTAVYYCTAQGQWRAAPVAVAAEYEFWGQGTQVTVSSAAAGGGGSGGGGSGGGGSEVQLVESGGGLVQAGGSLKLSCAASGRTYAMGWFRQAPGKEREFVAHINALGTRTYYSDSVKGRFTISRDNAKNTEYLEMNNLKPEDTAVYYCTAQGQWRAAPVAVAAEYEFWGQGTQVTVSS
B9: the neutralization titer in assay [9] was 2.4 nM; in [4], below 1000 nM; in [8] it was 27.8 nM; in [3] it was 18.6 nM.

B10: MD2322 (VHH)
chain: EVQLVESGGGLVQPGGSLRLSCAVSISIFDIYAMDWYRQAPGKQRDLVATSFRDGSTNYADSVKGRFTISRDNAKNTLYLQMNSLKPEDTAVYLCHVSLYRDPLGVAGGMGVYWGKGALVTVSSGGGGSGGGGSEVQLVESGGGLVQPGGSLRLSCAVSISIFDIYAMDWYRQAPGKQRDLVATSFRDGSTNYADSVKGRFTISRDNAKNTLYLQMNSLKPEDTAVYLCHVSLYRDPLGVAGGMGVYWGKGALVTVSSGGGGSGGGGSEVQLVESGGGLVQPGGSLRLSCAVSISIFDIYAMDWYRQAPGKQRDLVATSFRDGSTNYADSVKGRFTISRDNAKNTLYLQMNSLKPEDTAVYLCHVSLYRDPLGVAGGMGVYWGKGALVTVSS
In the case of B10, the average neutralization titer in [3] is 7.3 nM; in [7], 14.7 nM; in assay [5], 6.1 nM.

B11: MD2317 (bispecific antibody)
chain: EVQLVESGGGLVQPGGSLRLSCAVSISIFDIYAMDWYRQAPGKQRDLVATSFRDGSTNYADSVKGRFTISRDNAKNTLYLQMNSLKPEDTAVYLCHVSLYRDPLGVAGGMGVYWGKGALVTVSSGGGGSGGGGSEVQLVESGGGLVQAGDSLRISCAASGRTLSIYSMGWFRQAPGKEREFVATIGWNSGRTFYPDSLKGRFTISRDNARNTLYLQMNNLRPEDTAVYYCAAAKGPLRLSSQADYWGQGTQVTVSSGGGGSGGGGSEVQLVESGGGLVQPGGSLRLSCAATGFTLENKAIGWFRQTPGSEREGVLCISKSGSWTYYTDSMRGRFTISRDNAENTVYLQMDSLKPEDTAVYYCATTTAGGGLCWDGTTFSRLASSWGQGTQVTVSS
Take B11: the average neutralization titer in assay [3], in assay [7] and in assay [5] was 12.8 nM throughout.
